Results as given in PMC8703375, “Polar Interactions at the Dimer–Dimer Interface of Methionine Adenosyltransferase MAT I Control Tetramerization” (International Journal of Molecular Sciences, 2021).
“And” between values parts separate entries of the source, which are not always exact repeats. Identical values can stand only once.

Target: the molecule itself
Experiment: hydrophobic chromatography on phenyl Sepharose; soluble fractions of E. coli at 0.5 mg/mL (2 mL) on phenyl Sepharose in 50 mM Tris/HCl pH 8, 10 mM MgSO4, 1 mM EDTA; tetramers in the flowthrough, dimers eluted with 50% (v/v) DMSO; dot-blot with anti-MATα1 antiserum, dimer/tetramer ratio by densitometry

Protein | stoichiometry N
MATα1 E112L mutant (enzyme, methionine adenosyltransferase catalytic subunit MATα1, rat; ORF of pSSRL-T7N with a point mutation; source: E. coli BL21(DE3), IPTG-induced, in soluble fraction) not shown | 4
MATα1 R85E mutant (enzyme, methionine adenosyltransferase catalytic subunit MATα1, rat; ORF of pSSRL-T7N with a point mutation; source: E. coli BL21(DE3), IPTG-induced, in soluble fraction) not shown | 2
MATα1 T63V mutant (enzyme, methionine adenosyltransferase catalytic subunit MATα1, rat; ORF of pSSRL-T7N with a point mutation; source: E. coli BL21(DE3), IPTG-induced, in soluble fraction) not shown | 2
MATα1 R85L–T63V double mutant (enzyme, methionine adenosyltransferase catalytic subunit MATα1, rat; ORF of pSSRL-T7N with two point mutations; source: E. coli BL21(DE3), IPTG-induced, in soluble fraction) not shown | 2
MATα1 R85L–E112L double mutant (enzyme, methionine adenosyltransferase catalytic subunit MATα1, rat; ORF of pSSRL-T7N with two point mutations; source: E. coli BL21(DE3), IPTG-induced, in soluble fraction) not shown | 2
MATα1 R85L mutant (enzyme, methionine adenosyltransferase catalytic subunit MATα1, rat; ORF of pSSRL-T7N with a point mutation; source: E. coli BL21(DE3), IPTG-induced, in soluble fraction) not shown | 2 and 4
MATα1 Q81T mutant (enzyme, methionine adenosyltransferase catalytic subunit MATα1, rat; ORF of pSSRL-T7N with a point mutation; source: E. coli BL21(DE3), IPTG-induced, in soluble fraction) not shown | 4
MATα1 N106A mutant (enzyme, methionine adenosyltransferase catalytic subunit MATα1, rat; ORF of pSSRL-T7N with a point mutation; source: E. coli BL21(DE3), IPTG-induced, in soluble fraction) not shown | 4

Target: the molecule itself
Experiment: SEC; analytical gel filtration (AGFC): soluble fractions of E. coli at 0.5 mg/mL (100 µL) on Superose 12 10/30 HR in 50 mM Tris/HCl pH 8, 10 mM MgSO4, 1 mM EDTA, 150 mM KCl, 0.3 mL/min; fractions read by dot-blot with anti-MATα1 antiserum; homo-dimers and homo-tetramers separated by size

Protein | stoichiometry N
wild-type MATα1 (SSRL), rat methionine adenosyltransferase catalytic subunit (enzyme, methionine adenosyltransferase catalytic subunit MATα1, rat; the rat MATα1 ORF in plasmid pSSRL-T7N; Found as homo-dimers (MAT III) and homo-tetramers (MAT I) in an equilibrium that depends on protein concentration; also called MAT I (homo-tetramer); MAT III (homo-dimer); source: E. coli BL21(DE3), IPTG-induced, in soluble fraction) not shown | 2 and 4
